What was measured:
Assay in all cases: cell-based or functional assay
[1] = molecular target: human reference plasmin (commercial, human-derived plasmin) (human)
[2] = molecular target: Lemna-derived plasmin from transgenic line BAP01-B2-230 (derived from mature human plasminogen with the … (human, UniProt P00747 97-580)); P00747 581-810, Asn-289 of mature plasminogen (Asn-212 of plasmin) partly N-glycosylated)
[3] = molecular target: Lemna-derived plasmin from transgenic line BAP12-B2-150 (aglycosylated plasmin derived from mature human … (human, UniProt P00747 97-580; P00747 581-810)
Sequence of Lemna-derived plasmin from transgenic line BAP12-B2-150 (aglycosylated plasmin derived from mature human … (P00747 97-580 N308D, form in doubt, chain 1 of 2): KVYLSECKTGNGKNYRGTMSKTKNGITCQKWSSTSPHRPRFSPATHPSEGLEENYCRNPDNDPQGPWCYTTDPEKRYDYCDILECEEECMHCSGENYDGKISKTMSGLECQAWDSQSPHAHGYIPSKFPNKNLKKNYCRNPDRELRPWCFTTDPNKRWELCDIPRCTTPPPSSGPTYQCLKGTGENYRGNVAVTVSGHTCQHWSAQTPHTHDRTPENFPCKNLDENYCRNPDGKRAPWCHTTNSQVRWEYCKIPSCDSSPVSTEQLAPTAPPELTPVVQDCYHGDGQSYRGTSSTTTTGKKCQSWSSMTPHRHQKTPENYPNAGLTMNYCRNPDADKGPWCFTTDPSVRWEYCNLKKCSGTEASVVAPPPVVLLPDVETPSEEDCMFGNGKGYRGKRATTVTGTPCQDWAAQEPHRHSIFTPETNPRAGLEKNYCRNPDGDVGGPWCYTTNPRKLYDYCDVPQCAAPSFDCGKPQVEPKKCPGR
Sequence of Lemna-derived plasmin from transgenic line BAP12-B2-150 (aglycosylated plasmin derived from mature human … (P00747 581-810 I701V, form in doubt, chain 2 of 2): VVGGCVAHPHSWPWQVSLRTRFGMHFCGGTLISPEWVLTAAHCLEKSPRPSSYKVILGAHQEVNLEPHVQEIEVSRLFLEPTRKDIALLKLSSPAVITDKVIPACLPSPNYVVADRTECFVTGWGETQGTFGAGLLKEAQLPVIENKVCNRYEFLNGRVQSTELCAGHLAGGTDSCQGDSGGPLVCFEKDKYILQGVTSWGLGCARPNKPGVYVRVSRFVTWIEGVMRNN

Sequence of human reference plasmin (commercial, human-derived plasmin) (human) (P00747 20-580, chain 1 of 2): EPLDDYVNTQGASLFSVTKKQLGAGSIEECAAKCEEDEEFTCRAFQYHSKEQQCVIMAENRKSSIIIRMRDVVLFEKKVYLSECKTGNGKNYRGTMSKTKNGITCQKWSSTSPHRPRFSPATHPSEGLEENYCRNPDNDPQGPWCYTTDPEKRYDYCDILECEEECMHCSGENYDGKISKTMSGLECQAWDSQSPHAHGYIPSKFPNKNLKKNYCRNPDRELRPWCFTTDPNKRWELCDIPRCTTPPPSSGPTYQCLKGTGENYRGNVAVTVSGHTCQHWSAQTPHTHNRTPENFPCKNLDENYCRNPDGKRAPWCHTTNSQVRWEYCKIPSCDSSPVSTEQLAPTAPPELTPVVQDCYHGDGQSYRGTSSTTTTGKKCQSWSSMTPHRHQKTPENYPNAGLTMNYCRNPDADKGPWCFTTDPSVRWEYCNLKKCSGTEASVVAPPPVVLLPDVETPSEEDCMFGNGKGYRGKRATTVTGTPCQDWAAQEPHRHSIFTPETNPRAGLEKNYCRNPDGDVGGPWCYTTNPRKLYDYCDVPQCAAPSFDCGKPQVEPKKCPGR
Sequence of human reference plasmin (commercial, human-derived plasmin) (human) (P00747 581-810, chain 2 of 2): as the sequence (P00747 581-810 I701V, form in doubt, chain 2 of 2) above, with V121I counted along it
Sequence of Lemna-derived plasmin from transgenic line BAP01-B2-230 (derived from mature human plasminogen with the … (P00747 97-580, form in doubt, chain 1 of 2): as the sequence (P00747 97-580 N308D, form in doubt, chain 1 of 2) above, with D212N counted along it
Sequence of Lemna-derived plasmin from transgenic line BAP01-B2-230 (derived from mature human plasminogen with the … (P00747 581-810 I701V, form in doubt, chain 2 of 2): as the sequence (P00747 581-810 I701V, form in doubt, chain 2 of 2) above

B1: α2-antiplasmin (other, UniProt P08697 40-491, looked up)
chain: NQEQVSPLTLLKLGNQEPGGQTALKSPPGVCSRDPTPEQTHRLARAMMAFTADLFSLVAQTSTCPNLILSPLSVALALSHLALGAQNHTLQRLQQVLHAGSGPCLPHLLSRLCQDLGPGAFRLAARMYLQKGFPIKEDFLEQSEQLFGAKPVSLTGKQEDDLANINQWVKEATEGKIQEFLSGLPEDTVLLLLNAIHFQGFWRNKFDPSLTQRDSFHLDEQFTVPVEMMQARTYPLRWFLLEQPEIQVAHFPFKNNMSFVVLVPTHFEWNVSQVLANLSWDTLHPPLVWERPTKVRLPKLYLKHQMDLVATLSQLGLQELFQAPDLRGISEQSLVVSGVQHQSTLELSEVGVEAAAATSIAMSRMSLSSFSVNRPFLFFIFEDTTGLPLFVGSVRNPNPSAPRELKEQQDSPGNKDFLQSLKGFPRGDKLFGPDLKLVPPMEEDYPQFGSPK
- percent of plasmin inhibited, no pre-incubation with α2-AP, molar ratio of 1:1 (S-2403 chromogenic assay) [1]: ~90%
- percent of plasmin inhibited, no pre-incubation with α2-AP, molar ratio of 1:1 (S-2403 chromogenic assay) [2]: 60%
- percent of plasmin inhibited, no pre-incubation with α2-AP, molar ratio of 1:1 (S-2403 chromogenic assay) [3]: 60%
